Data set [1] has as its target T1, EYA4 358-639 (UniProt O95677 358-639).
T1 sequence: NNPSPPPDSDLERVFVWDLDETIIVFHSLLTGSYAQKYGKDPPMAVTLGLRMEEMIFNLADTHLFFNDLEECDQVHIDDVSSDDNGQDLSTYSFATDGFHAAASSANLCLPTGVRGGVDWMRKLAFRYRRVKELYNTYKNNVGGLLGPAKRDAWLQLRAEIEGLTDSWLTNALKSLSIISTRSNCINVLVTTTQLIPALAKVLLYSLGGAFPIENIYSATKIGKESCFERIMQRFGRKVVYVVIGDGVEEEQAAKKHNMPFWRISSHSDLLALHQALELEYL
In words: EMSA. (In general: In EMSA bound probe runs differently from free probe, usually more slowly.)

In data set [2] the target is T2, RAD51 Y54F/Y315F (UniProt Q06609 1-339, Y54F;Y315F). In words: MST.
For data set [3], the target named is T3, EYA4 1-365 (UniProt O95677 1-365).
T3 sequence: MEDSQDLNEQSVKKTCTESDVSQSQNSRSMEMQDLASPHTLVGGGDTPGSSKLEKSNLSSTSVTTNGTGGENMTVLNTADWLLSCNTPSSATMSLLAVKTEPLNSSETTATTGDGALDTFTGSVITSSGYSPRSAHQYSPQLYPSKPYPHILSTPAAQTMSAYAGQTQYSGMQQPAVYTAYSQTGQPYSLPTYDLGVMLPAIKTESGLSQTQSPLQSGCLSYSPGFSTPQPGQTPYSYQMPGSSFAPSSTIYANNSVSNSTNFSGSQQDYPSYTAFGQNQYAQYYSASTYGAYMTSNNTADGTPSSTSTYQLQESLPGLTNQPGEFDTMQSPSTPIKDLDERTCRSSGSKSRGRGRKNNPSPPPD
In words: MST.

For data set [4], the target named is T2, RAD51 Y54F/Y315F. In words: MST. This is another data set of the same source.
Data set [5] deals with T2, RAD51 Y54F/Y315F. Kind of data set: negative-stain EM.
Data set [6] deals with RAD51 WT (UniProt Q06609 1-339). In words: negative-stain EM.
For data set [7], the target named is RAD51 T309A (UniProt Q06609 1-339, T309A). Kind of data set: negative-stain EM.

As usually defined, the Kd is the concentration at which binding is half-saturated. High values mean weaker binding, low ones tighter binding.

T2 sequence (Q06609 whole entry Y54F/Y315F): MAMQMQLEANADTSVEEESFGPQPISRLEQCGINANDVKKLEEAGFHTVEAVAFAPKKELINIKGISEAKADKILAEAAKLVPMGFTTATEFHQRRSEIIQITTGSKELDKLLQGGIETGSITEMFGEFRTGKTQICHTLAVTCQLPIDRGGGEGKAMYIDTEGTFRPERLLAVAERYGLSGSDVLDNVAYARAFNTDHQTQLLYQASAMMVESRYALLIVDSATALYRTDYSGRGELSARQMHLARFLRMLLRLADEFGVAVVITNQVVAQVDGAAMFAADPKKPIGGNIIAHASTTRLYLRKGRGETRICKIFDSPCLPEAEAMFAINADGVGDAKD
Chain of RAD51 WT (Q06609 whole entry): as the sequence (Q06609 whole entry Y54F/Y315F) above, with F54Y, F315Y counted along it
Chain of RAD51 T309A (Q06609 whole entry T309A): as the sequence (Q06609 whole entry Y54F/Y315F) above, with F54Y, T309A, F315Y counted along it

B1: Cy5-P1 ssDNA (ssDNA)
DNA: TTATATCCTTTACTTTGAATTCTATGTTTAACCTTTTACTTATTTTGTATTAGCCGGATCCTTATTTCAATTATGTTCAT
Turning to B1, the binding result in data set [1] is on record as “no binding”; in data set [2] it was “binds”. The molecule also yielded a Kd in data set [3] of 303 nM.

B2: Cy5-P1/P2 dsDNA (dsDNA)
DNA 1: TTATATCCTTTACTTTGAATTCTATGTTTAACCTTTTACTTATTTTGTATTAGCCGGATCCTTATTTCAATTATGTTCAT
DNA 2: ATGAACATAATTGAAATAAGGATCCGGCTAATACAAAATAAGTAAAAGGTTAAACATAGAATTCAAAGTAAAGGATATAA
Consider B2, for which the values for the binding result in data set [1] and in data set [4] were “no binding” and “binds”, respectively. This molecule also came in with a Kd in data set [3] of 732 nM.

B3: 83(dT) (ssDNA)
DNA: TTTTTTTTTTTTTTTTTTTTTTTTTTTTTTTTTTTTTTTTTTTTTTTTTTTTTTTTTTTTTTTTTTTTTTTTTTTTTTTTTTT
As to B3, the binding result in data set [5], in data set [6] and in data set [7] was “binds” each time.

These data come from article PMC10853800.
